Data on one molecule can be found in US20250042990A1 (Eli Lilly, published 2025).

The term Kd denotes a measure of binding affinity in units of concentration. Low values mean a tighter complex, high ones a looser complex.

For experiment [1], the target named is T1, human IL-1β (human, UniProt P01584 117-269). Kind of experiment: cell-based or functional assay.
The target of experiment [2] is T1, human IL-1β. Kind of experiment: MSD-SET (solution equilibrium titration, electrochemiluminescence), 37° C., 72 h equilibrium. On the procedure: MSD (Meso Scale Discovery) electrochemiluminescence assay is utilized to measure the affinity of Antibody I, Antibody II, Antibody III, and Canakinumab to human IL-1β. First, the equilibrium mixture of antibodies and human IL-1β is set up; in the mixture the antibody concentrations are kept constant at 1 pM, 10 pM, and 100 pM whereas the ligand is titrated in the concentration ranging from 0.9 nM to 0.00004 nM (2.5 times dilution between concentrations). The equilibrium mixture is set up in sealed non-binding 96-well plate at 37° C. for 72 hours.
MSD Gold Streptavidin plates are used to detect the free antibodies in the equilibrium mixture. The MSD plates are first blocked with blocking buffer (PBS+1% BSA) for 1 hour on a shaker set at 800 rpm and then washed 3 times with washing buffer PBST (PBS+0.05% Tween 20). The plates are coated with biotinylated human IL-1β followed by 3× washing with PBST. The equilibrium mixtures are added to the coated plate, incubated at room temperature with shaking for 2.5 mins and immediately washed 3× with PBST. The goat anti-human Sulfo-TAG antibody is added to the plate and incubated at room temperature for 1 hour with shaking. After three more washes, MSD Read Buffer at 1:2 concentration diluted in MilliQ water is added to the wells. Immediately afterwards, the plates are read using an MSD Sector Imager SI6000 instrument.

B1: Canakinumab (antibody, human IgG4 S228P, kappa, F234A L235A, V domains shown)
VH: QVQLVESGGGVVQPGRSLRLSCAASGFTFSVYGMNWVRQAPGKGLEWVAIIWYDGDNQYYADSVKGRFTISRDNSKNTLYLQMNGLRAEDTAVYYCARDLRTGPFDYWGQGTLVTVSS
VL: EIVLTQSPDFQSVTPKEKVTITCRASQSIGSSLHWYQQKPDQSPKLLIKYASQSFSGVPSRFSGSGSGTDFTLTINSLEAEDAAAYYCHQSSSLPFTFGPGTKVDIKR
notes: Comparator
B1: the “Avg. IC50, neutralization of human IL-1β (4 pM) in HEK-Blue IL-1β SEAP reporter cells” value in experiment [1] came out at 26 pM. In experiment [2], this molecule yielded a Kd of 0.0135 nM.
